Data published in patent publication US20110201560A1 (DKFZ DEUTSCHES KREBSFORSCHUNGSZENTRUM STIFTUNG DES …, published 2011).

T1: HPV6 E6 protein (HPV6, UniProt P06462 1-150)
T1 construct: Expressed in yeast from a pPC97 expression vector; also called E6 of HPV6
T1 sequence: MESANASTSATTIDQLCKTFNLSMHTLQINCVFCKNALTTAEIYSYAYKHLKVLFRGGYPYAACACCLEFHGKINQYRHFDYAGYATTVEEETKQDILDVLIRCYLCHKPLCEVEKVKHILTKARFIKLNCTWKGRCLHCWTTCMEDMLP

T2: HPV11 E6 protein (HPV11, UniProt P04019 1-150)
T2 construct: Expressed in yeast from a pPC97 expression vector; also called E6 of HPV11
T2 sequence: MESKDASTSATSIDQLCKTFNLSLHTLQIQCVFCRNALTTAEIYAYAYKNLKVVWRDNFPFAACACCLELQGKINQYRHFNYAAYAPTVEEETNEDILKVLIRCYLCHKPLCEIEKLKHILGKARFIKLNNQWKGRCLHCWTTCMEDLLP

B1: E6 pep 1 (peptide)
peptide: KGSLNCSCLVCWLQMFLGEFGP
notes: Linear peptide from a randomized 20-mer library; Expressed in yeast as a GAL4AD fusion (vector pADpep); also called a1
B2: E6 pep 11 (peptide)
peptide: EFGSGCSCIVCIGLI
notes: Expressed in yeast as a GAL4AD fusion (pADpep), in the mammalian two-hybrid assay as a VP16AD fusion (pACT2), and in the p53 reporter assay as an hrGFP fusion; also called a3
B3: E6 pep5 (peptide)
peptide: PFLLGCFCLCCWIECQIGSYGP
notes: Linear peptide from a randomized 20-mer library; Expressed in yeast as a GAL4AD fusion (vector pADpep); also called a2

What was measured:
HPV6 E6 protein = target: T1, HPV6 E6 protein; assay: yeast two-hybrid
HPV11 E6 protein = target: T2, HPV11 E6 protein; assay: yeast two-hybrid
HPV18 E6 protein = target: T3, HPV18 E6 protein (HPV18, UniProt P06463 1-158); assay: yeast two-hybrid
T3 construct: Expressed in yeast from a pPC97 expression vector; also called E6 of HPV18

HPV16 E6 oncoprotein [1] = target: T4, HPV16 E6 oncoprotein (HPV16, UniProt P03126 1-158); assay: yeast two-hybrid screening
T4 construct: Expressed in yeast from pPC97; In the functional assays it is the endogenous E6 of HPV16-positive cells; also called HPV16 E6 protein; HPV-E6

HPV16 E6 oncoprotein [2] = target: T4, HPV16 E6 oncoprotein; assay: mutational studies (two-hybrid; assay not further described)

T4 sequence (P03126 whole entry): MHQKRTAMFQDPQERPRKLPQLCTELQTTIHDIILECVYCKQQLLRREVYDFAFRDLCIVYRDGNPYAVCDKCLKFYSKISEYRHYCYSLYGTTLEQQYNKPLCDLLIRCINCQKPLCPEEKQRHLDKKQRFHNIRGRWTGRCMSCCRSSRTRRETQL
T3 sequence (P06463 whole entry): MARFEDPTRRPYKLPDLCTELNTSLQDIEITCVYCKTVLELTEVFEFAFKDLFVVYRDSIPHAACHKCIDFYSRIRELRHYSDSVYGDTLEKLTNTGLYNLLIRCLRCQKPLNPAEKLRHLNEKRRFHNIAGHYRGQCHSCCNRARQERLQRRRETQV

Row | Binder | binding result (HPV6 E6 protein) | binding result (HPV11 E6 protein) | binding result (HPV18 E6 protein) | binding result (HPV16 E6 oncoprotein [1]) | binding result (HPV16 E6 oncoprotein [2])
1 | B1 | no binding | no binding | no binding | binds | 
2 | B2 | no binding | no binding | no binding | binds | 
3 | KEKEEYNSNSSSIASIGLI (also called b2) [pep11**m] |  |  |  |  | no binding
4 | B3 | no binding | no binding | no binding | binds | 
